Experimental findings from article PMC4558366 (Cell reports, 2015) are described below.

The experiment addresses T1, UHRF1_(647-687) (human, UniProt Q96T88-2 647-687).
T1 chain (looked up): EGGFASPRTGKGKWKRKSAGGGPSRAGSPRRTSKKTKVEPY
In words: ITC. For orientation: Isothermal titration calorimetry measures the heat released or taken up as one component is titrated into another.

B1: USP7 UBL1-2 E736A (domain or fragment)
chain: EAHLYMQVQIVAEDQFCGHQGNDMYDEEKVKYTVFKVLKNSSLAEFVQSLSQTMGFPQDQIRLWPMQARSNGTKRPAMLDNEADGNKTMIELSDNENPWTIFLETVDPELAASGATLPKFDKDHDVMLFLKMYDPKTRSLNYCGHIYTPISCKIRDLLPVMCDRAGFIQDTSLILYAEVKPNLTERIQDYDVSLDKALDELMDGDIIVFQKDDPENDNSELPTAKEYFRDLYH
For B1, the “fold reduction of binding affinity against wild type” value stood at 4 fold.
